We go through 5 molecules from article PMC8995355 (Molecular cell, 2022).

One experiment has as its target RIF1 (UniProt Q5UIP0). As to the kind of experiment: biotin-peptide streptavidin pull-down, RIF1 blot.
The target of experiment [1] is Cy5-53BP1(166-182) pS176/pS178; pS176/pS178 (S) (human) (UniProt Q12888). The experiment can be described thus: fluorescence polarisation. In general terms: Fluorescence polarisation rises when a labelled molecule tumbles more slowly, as on binding a larger partner.
The target in experiment [2] is T1, RIF1(1-980), recombinant N-terminal fragment with the HEAT repeat-rich NTD (human, UniProt Q5UIP0 1-980).
T1 sequence (looked up): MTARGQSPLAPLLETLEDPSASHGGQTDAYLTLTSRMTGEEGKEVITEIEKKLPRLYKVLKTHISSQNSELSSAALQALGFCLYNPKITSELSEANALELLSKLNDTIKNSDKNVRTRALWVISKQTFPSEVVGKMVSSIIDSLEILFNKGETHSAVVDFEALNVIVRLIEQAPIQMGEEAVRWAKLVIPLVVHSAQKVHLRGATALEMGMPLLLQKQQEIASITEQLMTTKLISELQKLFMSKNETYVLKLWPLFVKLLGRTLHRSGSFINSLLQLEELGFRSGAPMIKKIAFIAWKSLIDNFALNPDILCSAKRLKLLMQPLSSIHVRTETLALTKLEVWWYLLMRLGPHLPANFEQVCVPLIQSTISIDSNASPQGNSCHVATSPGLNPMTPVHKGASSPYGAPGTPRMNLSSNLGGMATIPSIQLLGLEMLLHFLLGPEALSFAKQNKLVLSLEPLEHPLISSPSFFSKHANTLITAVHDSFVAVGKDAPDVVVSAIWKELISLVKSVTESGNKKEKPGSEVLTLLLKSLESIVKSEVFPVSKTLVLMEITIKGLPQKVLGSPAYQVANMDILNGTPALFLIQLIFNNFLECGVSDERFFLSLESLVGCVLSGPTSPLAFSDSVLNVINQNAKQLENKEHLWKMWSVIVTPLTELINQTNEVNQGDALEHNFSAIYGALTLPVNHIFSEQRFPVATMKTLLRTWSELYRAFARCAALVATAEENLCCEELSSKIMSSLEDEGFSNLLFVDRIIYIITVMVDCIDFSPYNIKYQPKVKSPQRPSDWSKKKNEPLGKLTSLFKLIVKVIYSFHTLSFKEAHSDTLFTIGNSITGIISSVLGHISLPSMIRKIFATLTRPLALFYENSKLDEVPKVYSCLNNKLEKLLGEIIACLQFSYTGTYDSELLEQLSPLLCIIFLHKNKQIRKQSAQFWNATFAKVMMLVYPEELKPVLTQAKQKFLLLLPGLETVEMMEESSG
The experiment can be described thus: fluorescence polarisation.

Square brackets hold non-standard residues; d marks the D form. Ends that are not written are not given here. pS = N[C@@H](COP(=O)(O)O)C(=O)O

The Kd is the constant that tells how readily two partners part at equilibrium. Low readings indicate a tighter complex, high ones a looser complex.

Consider “53BP1 686-702 (from UniProt Q12888) pT696/pS698 peptide”, for which the “binding against the reference” value in the experiment with RIF1 (reference: unphosphorylated peptide (T696/S698), sites T696,S698) is reported as “stronger”.

As for “RIF1(1-980), recombinant N-terminal fragment with the HEAT repeat-rich NTD (from UniProt Q5UIP0 1-980) (domain or fragment)”, the Kd in experiment [1] was found to be 2 µM.

As for “53BP1 511-527 (from UniProt Q12888) pS518/pS520 peptide”, the “binding against the reference” value in the experiment with RIF1 (reference: unphosphorylated peptide (S518/S520), sites S518,S520) was “stronger”.

Regarding Cy5-SQLGFGVLAL[pS]Q[pS]QDVE (peptide, UniProt Q12888 166-182, looked up) [Cy5-53BP1(166-182) pS176/pS178 E174A; pS176/pS178 (S) E174A], the binding result in experiment [2] was “binds”.

Turning to Cy5-SQLGFGVLELEQ[pS]QDVE (peptide, UniProt Q12888 166-182, looked up) [Cy5-53BP1(166-182) S176E/pS178; S176E/pS178 (S)], the binding result in experiment [2] was “binds”.
